Residue numbers refer to the chain shown, from its start. Where two headings read alike, the source gives them in different places. Each block holds one binder with its values, some of them ahead of it.
How the values were obtained:
Test in all cases: cell-based or functional assay
[1] = molecular target: T1, recombinant human TFPI (tissue factor pathway inhibitor) (human, UniProt P10646 29-304)
[2] = molecular target: T1, recombinant human TFPI (tissue factor …); remark: listed apart in the source
[3] = molecular target: T1, recombinant human TFPI (tissue factor …); remark: listed apart in the source
[4] = molecular target: T1, recombinant human TFPI (tissue factor …); remark: listed apart in the source
[5] = molecular target: T1, recombinant human TFPI (tissue factor …); remark: listed apart in the source

FXa assay % of FXa alone, 2.5 nM Ab, 10 nM TFPI [1]: 6.6% | FXa assay % of FXa alone, 5 nM Ab, 10 nM TFPI [1]: 7.7% | FXa assay % of FXa alone, 10 nM Ab, 10 nM TFPI [1]: 14.9% | FXa assay % of FXa alone, 20 nM Ab, 10 nM TFPI [1]: 61.6% | FXa assay OD, 10 nM Ab, 10 nM TFPI [1]: 0.115 | FXa assay OD, 20 nM Ab, 10 nM TFPI [1]: 0.474
B1: clone 3131 (antibody, V domains shown)
VH: EVQLVESGGGLVKPGGSLRLSCAASGFTFSSYAMSWVRQAPGKGLEWVSTITTGGSYTYYADSVQGRFTISRDNAKNSLYLQMNSLRAEDTAVYYCARQDGQFLMDYWGQGTLVTVSS
VL: DVVMTQTPLSLPVTLGQPASISCKSSQSLLDIDGKTYLNWLQQRPGQSPKRLIYLVSKLDSGVPDRFTGSGSGTDFTLKISRVEAEDVGVYYCWQGTHFPFTFGQGTKVEIKR

FXa assay % of FXa alone, 2.5 nM Ab, 10 nM TFPI [1]: 6.4% | FXa assay % of FXa alone, 5 nM Ab, 10 nM TFPI [1]: 8.4% | FXa assay % of FXa alone, 10 nM Ab, 10 nM TFPI [1]: 16.7% | FXa assay % of FXa alone, 20 nM Ab, 10 nM TFPI [1]: 80.5% | FXa assay OD, 2.5 nM Ab, 10 nM TFPI [1]: 0.0495 | FXa assay OD, 10 nM Ab, 10 nM TFPI [1]: 0.129 | FXa assay OD, 20 nM Ab, 10 nM TFPI [1]: 0.62
B2: clone 4141 (antibody, V domains shown)
VH: B1 VH with S35N, S49G, Y57H, Q65E, Q102Y
VL: B1 VL with I32V

FXa assay % of FXa alone, 2.5 nM Ab, 10 nM TFPI [2]: 5% | FXa assay % of FXa alone, 5 nM Ab, 10 nM TFPI [2]: 6.1% | FXa assay % of FXa alone, 10 nM Ab, 10 nM TFPI [2]: 12.2% | FXa assay % of FXa alone, 20 nM Ab, 10 nM TFPI [2]: 53.1% | FXa assay OD, 2.5 nM Ab, 10 nM TFPI [2]: 0.041 | FXa assay OD, 10 nM Ab, 10 nM TFPI [2]: 0.099 | FXa assay OD, 20 nM Ab, 10 nM TFPI [2]: 0.431
B3: clone 4208 (antibody, V domains shown)
VH: B1 VH with P14S, S49G, Q102N
VL: B1 VL with I32T

FXa assay % of FXa alone, 2.5 nM Ab, 10 nM TFPI [3]: 6.4% | FXa assay % of FXa alone, 5 nM Ab, 10 nM TFPI [3]: 10.3% | FXa assay % of FXa alone, 10 nM Ab, 10 nM TFPI [3]: 66.9% | FXa assay % of FXa alone, 20 nM Ab, 10 nM TFPI [3]: 73.9% | FXa assay OD, 2.5 nM Ab, 10 nM TFPI [3]: 0.031 | FXa assay OD, 5 nM Ab, 10 nM TFPI [3]: 0.05 | FXa assay OD, 10 nM Ab, 10 nM TFPI [3]: 0.324 | FXa assay OD, 20 nM Ab, 10 nM TFPI [3]: 0.357
B4: clone 1001 (antibody, V domains shown)
VH: B1 VH with S35N, Q65D, Q102N
VL: B1 VL

FXa assay % of FXa alone, 2.5 nM Ab, 10 nM TFPI [4]: 3.8% | FXa assay % of FXa alone, 5 nM Ab, 10 nM TFPI [4]: 3.6% | FXa assay % of FXa alone, 10 nM Ab, 10 nM TFPI [4]: 4.5% | FXa assay % of FXa alone, 20 nM Ab, 10 nM TFPI [4]: 4%
B5: clone 1234 (antibody, V domains shown)
VH: B1 VH with S35N, Q102N
VL: B1 VL with K79E

FXa assay % of FXa alone, 2.5 nM Ab, 10 nM TFPI [5]: 8.9% | FXa assay % of FXa alone, 5 nM Ab, 10 nM TFPI [5]: 31% | FXa assay % of FXa alone, 10 nM Ab, 10 nM TFPI [5]: 72.1% | FXa assay % of FXa alone, 20 nM Ab, 10 nM TFPI [5]: 75.4% | FXa assay OD, 2.5 nM Ab, 10 nM TFPI [5]: 0.0675 | FXa assay OD, 5 nM Ab, 10 nM TFPI [5]: 0.236 | FXa assay OD, 10 nM Ab, 10 nM TFPI [5]: 0.549 | FXa assay OD, 20 nM Ab, 10 nM TFPI [5]: 0.574
B6: clone 7 (antibody, V domains shown)
VH: B1 VH with S35N, S49G, Q65D, Q102N
VL: B1 VL with Q27P, I32V

FXa assay % of FXa alone, 2.5 nM Ab, 10 nM TFPI [4]: 3.6% | FXa assay % of FXa alone, 5 nM Ab, 10 nM TFPI [4]: 4% | FXa assay % of FXa alone, 10 nM Ab, 10 nM TFPI [4]: 3.6% | FXa assay % of FXa alone, 20 nM Ab, 10 nM TFPI [4]: 3.3%
B7: clone 1216 (antibody, V domains shown)
VH: B1 VH with S31H, S35N, Q65E, Q102H
VL: B1 VL with F99L

FXa assay % of FXa alone, 2.5 nM Ab, 10 nM TFPI [1]: 6.4% | FXa assay % of FXa alone, 5 nM Ab, 10 nM TFPI [1]: 9.1% | FXa assay % of FXa alone, 10 nM Ab, 10 nM TFPI [1]: 33.4% | FXa assay % of FXa alone, 20 nM Ab, 10 nM TFPI [1]: 81.3% | FXa assay OD, 2.5 nM Ab, 10 nM TFPI [1]: 0.0495 | FXa assay OD, 5 nM Ab, 10 nM TFPI [1]: 0.07 | FXa assay OD, 10 nM Ab, 10 nM TFPI [1]: 0.258 | FXa assay OD, 20 nM Ab, 10 nM TFPI [1]: 0.626
B8: clone 3120 (antibody, V domains shown)
VH: B1 VH with S35N, Q65E, Q102Y
VL: B1 VL

FXa assay % of FXa alone, 2.5 nM Ab, 10 nM TFPI [5]: 9.6% | FXa assay % of FXa alone, 5 nM Ab, 10 nM TFPI [5]: 5.1% | FXa assay % of FXa alone, 10 nM Ab, 10 nM TFPI [5]: 11.8% | FXa assay % of FXa alone, 20 nM Ab, 10 nM TFPI [5]: 38.4% | FXa assay OD, 2.5 nM Ab, 10 nM TFPI [5]: 0.073 | FXa assay OD, 5 nM Ab, 10 nM TFPI [5]: 0.0385 | FXa assay OD, 10 nM Ab, 10 nM TFPI [5]: 0.09 | FXa assay OD, 20 nM Ab, 10 nM TFPI [5]: 0.292
B9: clone 10 (antibody, V domains shown)
VH: B1 VH with S35N, Q102N
VL: B1 VL with Q27P, I32V

FXa assay % of FXa alone, 2.5 nM Ab, 10 nM TFPI [3]: 4.6% | FXa assay % of FXa alone, 5 nM Ab, 10 nM TFPI [3]: 6.2% | FXa assay % of FXa alone, 10 nM Ab, 10 nM TFPI [3]: 20.4% | FXa assay % of FXa alone, 20 nM Ab, 10 nM TFPI [3]: 42.7% | FXa assay OD, 2.5 nM Ab, 10 nM TFPI [3]: 0.0225 | FXa assay OD, 5 nM Ab, 10 nM TFPI [3]: 0.03 | FXa assay OD, 10 nM Ab, 10 nM TFPI [3]: 0.0985 | FXa assay OD, 20 nM Ab, 10 nM TFPI [3]: 0.206
B10: clone 1024 (antibody, V domains shown)
VH: B1 VH with Q65D, Q102N
VL: B1 VL with I32L

Source: patent US20180030151A1 (MOGAM INSTITUTE FOR BIOMEDICAL RESEARCH, published 2018)
